Test results from paper PMC11423142, “Clec7a Worsens Long‐Term Outcomes after Ischemic Stroke by Aggravating Microglia‐Mediated Synapse Elimination” (Advanced Science, 2024).

Target: T1, purified human Clec7a protein (R&D Systems Cat. 1859-DC-050) (human, UniProt Q9BXN2 66-247)
T1 construct: Clec7a, human, bought recombinant protein; source: bought: R&D Systems (Cat. 1859-DC-050)
T1 sequence (looked up): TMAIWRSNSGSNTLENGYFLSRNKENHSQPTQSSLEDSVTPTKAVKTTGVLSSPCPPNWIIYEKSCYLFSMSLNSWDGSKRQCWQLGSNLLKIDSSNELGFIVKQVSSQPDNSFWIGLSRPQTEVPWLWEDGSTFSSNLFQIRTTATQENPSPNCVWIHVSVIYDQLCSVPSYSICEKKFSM
Assay: MST; Monolith NT.115, 20 °C, 20 mM HEPES pH 8.0, 150 mM NaCl; Clec7a constant at 50 nM, MD2 varied from 10 µM to 1.2 nM; n = 3
Settings: both partners purified

B1: human MD2 protein (R&D Systems Cat. 1787-MD) (ligand, UniProt Q9Y6Y9 19-160, looked up)
chain: QKQYWVCNSSDASISYTYCDKMQYPISINVNPCIELKRSKGLLHIFYIPRRDLKQLYFNLYITVNTMNLPKRKEVICRGSDDDYSFCRALKGETVNTTISFSFKGIKFSKGKYKCVVEAISGSPEEMLFCLEFVILHQPNSN
notes: MD2 (lymphocyte antigen 96), human, bought recombinant protein; source: bought: R&D Systems (Cat. 1787-MD)
  Kd: 2960 nM
